Paper PMC10397247
Like-named read-outs stand apart in the source and are kept apart here. Each block holds one binder with its values, some of them ahead of it.

What was measured:
Assay in all cases: two-hybrid library CCmax;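 also: natural log of median RNA to DNA barcode read ratio; higher means stronger binding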
[1] = target: T1, P6-AA-12HAA-Y; settings: mean of both orientations
T1 chain: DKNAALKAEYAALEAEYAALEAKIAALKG

[2] = target: T2, P6-AA-12HAA-V; settings: mean of both orientations
T2 chain: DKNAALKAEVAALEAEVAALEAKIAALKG

[3] = target: T3, P6-AA-12HAA-S
T3 chain: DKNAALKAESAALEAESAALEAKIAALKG

[4] = target: T4, P6-AA-12HAA-L; settings: mean of both orientations
T4 chain: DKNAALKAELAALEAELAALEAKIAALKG

[5] = target: T5, P6-AA-12HAA-D; settings: mean of both orientations
T5 chain: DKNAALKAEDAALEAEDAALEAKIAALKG

[6] = target: T6, P6-AA-12HAA-H; settings: mean of both orientations
T6 chain: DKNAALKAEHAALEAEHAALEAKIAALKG

[7] = target: T7, P6-AA-12HAA-E; settings: mean of both orientations
T7 chain: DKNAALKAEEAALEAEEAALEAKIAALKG

[8] = target: T8, P6-AA-12HAA-T
T8 chain: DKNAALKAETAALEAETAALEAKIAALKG

[9] = target: T9, P6-AA-12HAA-R; settings: mean of both orientations
T9 chain: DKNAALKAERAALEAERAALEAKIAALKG

[10] = target: T10, P6-AA-12HAA-K; settings: mean of both orientations
T10 chain: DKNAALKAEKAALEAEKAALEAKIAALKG

[11] = target: T11, P6-AA-1HAA-N; settings: mean of both orientations
T11 chain: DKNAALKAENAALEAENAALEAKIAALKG

[12] = target: T12, 4H3121-AA; settings: mean of both orientations
T12 chain: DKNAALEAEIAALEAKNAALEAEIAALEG

[13] = target: T13, 4H428-AA; settings: mean of both orientations
T13 chain: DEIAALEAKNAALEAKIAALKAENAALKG

[14] = target: T14, 4H971-AA; settings: mean of both orientations
T14 chain: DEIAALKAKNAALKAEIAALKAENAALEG

[15] = target: T15, 4H2742-AA; settings: mean of both orientations
T15 chain: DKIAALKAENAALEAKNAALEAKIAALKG

[16] = target: T16, 4H3939-AA; settings: mean of both orientations
T16 chain: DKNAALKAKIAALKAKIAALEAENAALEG

[17] = target: T17, 4H3666-AA; settings: mean of both orientations
T17 chain: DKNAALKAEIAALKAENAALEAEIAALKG

[18] = target: T18, 4H3102-AA; settings: mean of both orientations
T18 chain: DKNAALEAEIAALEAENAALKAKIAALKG

[19] = target: T19, 4H478-AA; settings: mean of both orientations
T19 chain: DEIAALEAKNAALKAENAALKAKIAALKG

[20] = target: T20, 4H2713-AA; settings: mean of both orientations
T20 chain: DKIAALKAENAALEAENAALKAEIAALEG

[21] = target: T21, 4H2283-AA
T21 chain: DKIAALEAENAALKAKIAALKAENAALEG

[22] = target: T22, 4H656-AA; settings: mean of both orientations
T22 chain: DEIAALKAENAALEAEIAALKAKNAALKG

[23] = target: T23, 4H675-AA; settings: mean of both orientations
T23 chain: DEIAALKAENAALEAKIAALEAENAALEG

[24] = target: T24, 4H2948-AA; settings: mean of both orientations
T24 chain: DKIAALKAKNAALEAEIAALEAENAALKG

[25] = target: T25, 4H3920-AA; settings: mean of both orientations
T25 chain: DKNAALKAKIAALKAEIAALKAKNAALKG

[26] = target: T26, 4H497-AA; settings: mean of both orientations
T26 chain: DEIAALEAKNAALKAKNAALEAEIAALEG

[27] = target: T27, 4H3709-AA; settings: mean of both orientations
T27 chain: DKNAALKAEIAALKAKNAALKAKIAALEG

[28] = target: T28, 4H3446-AA; settings: mean of both orientations
T28 chain: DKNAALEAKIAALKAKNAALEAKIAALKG

[29] = target: T29, 4H391-AA; settings: mean of both orientations
T29 chain: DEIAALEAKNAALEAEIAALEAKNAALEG

[30] = target: T30, 4H3591-AA; settings: mean of both orientations
T30 chain: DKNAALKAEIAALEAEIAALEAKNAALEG

[31] = target: T31, 4H3417-AA; settings: mean of both orientations
T31 chain: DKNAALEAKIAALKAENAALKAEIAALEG

[32] = target: T32, 4H3628-AA; settings: mean of both orientations
T32 chain: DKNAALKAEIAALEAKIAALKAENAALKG

[33] = target: T33, 4H3029-AA; settings: mean of both orientations
T33 chain: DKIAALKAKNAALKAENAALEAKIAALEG

[34] = target: T34, 4H3066-AA; settings: mean of both orientations
T34 chain: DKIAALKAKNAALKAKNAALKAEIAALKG

[35] = target: T35, 4H2991-AA; settings: mean of both orientations
T35 chain: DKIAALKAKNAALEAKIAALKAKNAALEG

Binder: DKIAALEAENAALKAKIAALKAENAALEG [4H2283-AA]
interaction score [12]: -0.934
interaction score [13]: -0.691
interaction score [14]: -0.878
interaction score [15]: -1.21
interaction score [16]: -1.94
interaction score [17]: -0.868
interaction score [18]: 0.17
interaction score [19]: -1.52
interaction score [20]: -1.19
interaction score [21]: 1.25
interaction score [22]: 1.84
interaction score [23]: -0.967
interaction score [24]: 0.785
interaction score [25]: -1.54
interaction score [26]: -1.45
interaction score [27]: -1.11
interaction score [28]: -1.15
interaction score [29]: -0.595
interaction score [30]: -1.46
interaction score [31]: 1.63
interaction score [32]: -1.32
interaction score [33]: -1.74
interaction score [34]: -1.63
interaction score [35]: -1.95

Binder: DENAALEAKEAALKAKEAALKAEIAALEG [P5-AA-12HAA-E]
interaction score [1]: -1.59
interaction score [2]: 0.123
interaction score ([3]; mean of both orientations): -1.39
interaction score [4]: -0.949
interaction score [5]: -1.48
interaction score [6]: -1.89
interaction score [7]: -1.42
interaction score ([8]; mean of both orientations): -1.32
interaction score [9]: -2.01
interaction score [10]: -2.37
interaction score [11]: -1.74

Binder: DENAALEAKKAALKAKKAALKAEIAALEG [P5-AA-12HAA-K]
interaction score [1]: -1.01
interaction score [2]: 2.22
interaction score [3]: -2.76
interaction score [4]: 1.03
interaction score [5]: -1.9
interaction score [6]: -1.46
interaction score [7]: -1.48
interaction score ([8]; mean of both orientations): -0.798
interaction score [9]: -1.57
interaction score [10]: -1.5
interaction score [11]: -1.37

Further lines, results first:

interaction score [1]: 1.09
interaction score [2]: 2.1
interaction score ([3]; mean of both orientations): 1.18
interaction score [4]: 2.29
interaction score [5]: -1.5
interaction score [6]: 1.34
interaction score [7]: 1.61
interaction score ([8]; mean of both orientations): 1.87
interaction score [9]: 1.94
interaction score [10]: 1.73
interaction score [11]: -0.708
Binder: DENAALEAKVAALKAKVAALKAEIAALEG [P5-AA-12HAA-V]

interaction score [1]: 1.48
interaction score [2]: 2.38
interaction score ([3]; mean of both orientations): -1.4
interaction score [4]: 2.06
interaction score [5]: -1.3
interaction score [6]: -1.67
interaction score [7]: -1.65
interaction score [8]: -0.448
interaction score [9]: -1.41
interaction score [10]: -1.55
interaction score [11]: -0.0879
Binder: DENAALEAKYAALKAKYAALKAEIAALEG [P5-AA-12HAA-Y]

interaction score [1]: -1.07
interaction score [2]: 2.1
interaction score ([3]; mean of both orientations): -1.83
interaction score [4]: 1.4
interaction score [5]: -1.88
interaction score [6]: -1.83
interaction score [7]: -1.43
interaction score ([8]; mean of both orientations): -0.88
interaction score [9]: -1.5
interaction score [10]: -1.69
interaction score [11]: 0.341
Binder: DENAALEAKRAALKAKRAALKAEIAALEG [P5-AA-12HAA-R]
